Source: US20140017221

What was measured:
Flag-tagged SOD2 = test system: T1, Flag-tagged SOD2
T1 sequence: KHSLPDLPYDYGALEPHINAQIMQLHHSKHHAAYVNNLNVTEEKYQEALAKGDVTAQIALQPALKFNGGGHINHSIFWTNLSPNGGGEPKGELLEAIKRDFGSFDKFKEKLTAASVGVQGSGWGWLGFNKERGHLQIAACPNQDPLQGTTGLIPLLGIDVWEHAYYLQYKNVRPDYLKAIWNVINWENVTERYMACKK

[1] = test system: Flag-tagged SOD2 mutant of K68
[2] = test system: Flag-tagged SOD2 mutant of K122
[3] = test system: Flag-tagged SOD2 mutant of K130
[4] = biological target: T2, Long-chain acyl CoA dehydrogenase (endogenous, mouse liver), P51174
T2 chain: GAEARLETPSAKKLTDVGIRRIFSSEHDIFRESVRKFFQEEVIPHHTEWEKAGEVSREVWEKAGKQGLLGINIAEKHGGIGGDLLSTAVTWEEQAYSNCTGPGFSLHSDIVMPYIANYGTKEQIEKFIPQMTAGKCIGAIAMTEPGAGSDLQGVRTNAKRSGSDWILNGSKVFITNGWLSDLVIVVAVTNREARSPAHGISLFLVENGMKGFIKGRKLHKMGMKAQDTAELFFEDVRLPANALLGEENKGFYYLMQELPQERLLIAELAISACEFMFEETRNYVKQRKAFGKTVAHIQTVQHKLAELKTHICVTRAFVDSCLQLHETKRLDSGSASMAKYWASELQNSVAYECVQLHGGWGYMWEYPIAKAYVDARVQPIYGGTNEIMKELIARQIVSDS

For “SIRT3 (co-transfected expression construct)”, the “acetylation levels of immunopurified SOD2 mutant” value (Flag-tagged SOD2 K89R) was “SIRT3 co-expression further decreased acetylation levels of K53R and K89R, but not K53/89R”, the “acetylation levels of immunopurified SOD2 mutant” value (Flag-tagged SOD2 K53/89R) was “SIRT3 co-expression further decreased acetylation levels of K53R and K89R, but not K53/89R” and the “enzymatic activity of immunopurified SOD2 K53/89R (superoxide conversion, colorimetric)” value (Flag-tagged SOD2 K53/89R) was “SIRT3 did not further increase its enzymatic activity”. For the same molecule, the “acetylation levels for SOD2 after immunoprecipitation, western blotting with anti-acetyllysine antibody” value (Flag-tagged SOD2) was “SIRT3, but not SIRT3-H248Y, deacetylated SOD2”, the “enzymatic activity of immunopurified SOD2 (superoxide conversion, colorimetric)” value (Flag-tagged SOD2) was “Overexpression of WT SIRT3 decreased the acetylation of SOD2 (FIG. 3D, E, G) and significantly increased its enzymatic activity” and the “acetylation status of immunopurified SOD2 mutant” value (“acetylation status” below) [1] was “SIRT3 co-expression reduced acetylation levels of these three SOD2 mutants”. For the same molecule, the “acetylation levels of immunopurified SOD2 mutant” value (Flag-tagged SOD2 K53R) was “SIRT3 co-expression further decreased acetylation levels of K53R and K89R, but not K53/89R”, the “acetylation status” value [2] was “SIRT3 co-expression reduced acetylation levels of these three SOD2 mutants” and the “acetylation status” value [3] was “SIRT3 co-expression reduced acetylation levels of these three SOD2 mutants”.

In the case of SIRT3-H248Y, the “acetylation levels for SOD2 after immunoprecipitation, western blotting with anti-acetyllysine antibody” value (Flag-tagged SOD2) is reported as “SIRT3, but not SIRT3-H248Y, deacetylated SOD2” and the “enzymatic activity of immunopurified SOD2 (superoxide conversion, colorimetric)” value (Flag-tagged SOD2) is reported as “overexpression of SIRT3-H248Y had the opposite effect”.

B1: SIRT3 (endogenous, mouse tissue) (protein)
chain: PISLCVGASGGFGGGGSSEKKFSLQDVAELLRTRACSRVVVMVGAGISTPSGIPDFRSPGSGLYSNLQQYDIPYPEAIFELGFFFHNPKPFFMLAKELYPGHYRPNVTHYFLRLLHDKELLLRLYTQNIDGLERASGIPASKLVEAHGTFVTATCTVCRRSFPGEDIWADVMADRVPRCPVCTGVVKPDIVFFGEQLPARFLLHMADFALADLLLILGTSLEVEPFASLSEAVQKSVPRLLINRDLVGPFVLSPRRKDVVQLGDVVHGVERLVDLLGWTQELLDLMQRERGKLDGQDR
B1 was tested, and the “enzymatic activity of LCAD in liver lysates (oxidation of palmitoyl-CoA)” value [4] was “we observed a 50% increase in enzymatic activity of LCAD in WT but not SIRT3 KO mice during CR”.
